Measurements taken from PMC10593751.

Molecular target: human IgG1 (human)
Test: ELISA; immobilized human IgG (hIgG1 or hIgG2) used to pull down CD64; n = 3

Substance | Kd
CD64 engineered at the N-terminus with the CKAAKNK (CK) tissue homing peptide (receptor) | 53.6 pM
wild-type CD64 (Fc-gamma receptor 1) (from UniProt P12314 16-374) | 58.9 pM
